Among the data in paper PMC4635203 are binding and α-Gal activity (milliunits per ml per cell) values, retold here.

Series [1] addresses T1, LUZ24 gp4 (Mip) (Pseudomonas phage LUZ24) (UniProt A9J6U1).
T1 sequence: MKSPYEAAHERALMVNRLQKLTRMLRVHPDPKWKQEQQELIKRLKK
Nature of the series: EMSA. For orientation: In EMSA bound probe runs differently from free probe, usually more slowly.

The target in series [2] is T2, MvaT-His (Pseudomonas aeruginosa (PAO1?)) (UniProt Q9HW86).
T2 sequence: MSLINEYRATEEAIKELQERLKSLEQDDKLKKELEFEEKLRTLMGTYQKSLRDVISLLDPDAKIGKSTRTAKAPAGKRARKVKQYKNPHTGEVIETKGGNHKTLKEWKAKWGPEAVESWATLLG
Kind of series: EMSA.

Series [3] deals with LUZ24 gp4 (yeast two-hybrid bait) (Pseudomonas aeruginosa phage LUZ24). Kind of series: two-hybrid; alpha-galactosidase activity of the yeast two-hybrid pairs, in milliunits per ml per cell, for a relative comparison of interaction strengths.

For the molecule “CATGAGGCCAGGACGTTGTTCATGAAAACCGAATAATCGTTTCGAATGATGGTTTGCAATTATTAATGTCGAATGGAATGAATGTGCCATATCTCCATAAATAAAAAGGAAGTTTGTCCAATACTTGAGAAACTACTTTAAGAAGGTTTTGTCGGTAGAAAGCGATCAATC (double strand) [ptxS upstream region 150 bp]”, the binding result was “no binding” in series [1] and “binds” in series [2].

B1: MvaT (PA4315) prey fragment, amino acids 1-80 (domain or fragment)
chain: MSLINEYRATEEAIKELQERLKSLEQDDKLKKELEFEEKLRTLMGTYQKSLRDVISLLDPDAKIGKSTRTAKAPAGKRAR
As to B1, in series [3], the α-Gal activity (milliunits per ml per cell) stood at 23.1.
